Patent US7294481

Biological target: TNF-α (UniProt P01375)
Test: cell-based or functional assay

recombinant human TNFR:Fc fusion protein (TNFR-II:Fc), protein A purified, not HIC-fractionated, sequence (chain): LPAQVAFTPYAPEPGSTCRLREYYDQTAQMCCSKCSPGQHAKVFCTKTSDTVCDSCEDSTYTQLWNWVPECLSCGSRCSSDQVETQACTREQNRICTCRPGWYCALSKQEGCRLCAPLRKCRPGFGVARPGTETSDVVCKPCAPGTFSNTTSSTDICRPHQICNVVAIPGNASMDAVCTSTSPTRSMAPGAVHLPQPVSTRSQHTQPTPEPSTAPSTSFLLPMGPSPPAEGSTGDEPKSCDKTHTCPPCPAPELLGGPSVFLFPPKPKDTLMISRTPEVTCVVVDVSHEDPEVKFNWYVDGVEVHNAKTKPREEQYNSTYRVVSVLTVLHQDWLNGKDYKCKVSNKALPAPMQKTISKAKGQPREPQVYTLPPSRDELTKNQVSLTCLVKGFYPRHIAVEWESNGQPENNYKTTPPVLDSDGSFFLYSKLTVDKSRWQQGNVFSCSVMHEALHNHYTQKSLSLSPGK
UniProt P01375, sequence (P01375 77-233 limits assumed): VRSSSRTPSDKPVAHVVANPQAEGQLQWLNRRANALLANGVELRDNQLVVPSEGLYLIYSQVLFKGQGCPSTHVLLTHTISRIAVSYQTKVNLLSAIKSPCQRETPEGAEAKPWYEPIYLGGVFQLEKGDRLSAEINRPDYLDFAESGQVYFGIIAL

Substance: TNFR:Fc, HIC peak 2 fraction (Fc fusion)
- bioactivity (A375 assay; HIC with sodium acetate gradient): 2.71e+06 U/mg
- bioactivity (A375 cell killing neutralisation assay), compared to unfractionated material: 117%

Substance: TNFR:Fc, HIC peak 3 fraction (Fc fusion)
- bioactivity (A375 assay; HIC with sodium acetate gradient): < 340000 U/mg
- bioactivity (A375 cell killing neutralisation assay), compared to unfractionated material: 11%

Substance: recombinant human TNFR:Fc fusion protein (TNFR-II:Fc), protein A purified, not HIC-fractionated
- Bioassay 10^6 units/mg (n = 2); VA12 cells, production at 28° C., IGF-1: 2.07e+06 units/mg
- Bioassay 10^6 units/mg (n = 2); VA12 cells, production at 32° C., IGF-1: 1.62e+06 units/mg
- Bioassay 10^6 units/mg (n = 2); VA12 cells, production at 34° C., IGF-1: 950000 units/mg
- Bioassay 10^6 units/mg (n = 2); VA12 cells, production at 37° C., IGF-1: 490000 units/mg
